Data on six molecules can be found in publication PMC9175631 (Journal of Virology, 2022).

Substitutions are numbered along the chain they refer to.

B1: anti-ZIKV MAb 306-2 (antibody, V domains shown)
VH: QSLEESGGDLVKPGASLTLTCTASGFDFSDRYYMCWVRQAPGKGLEWIGCIYVGSGDTYYASWAKGRFTISRTSSTTVTLQMTRLTAADTATYFCARHPGTYFTLWGPGTLVTVSS
VL: DVVMTQTPSSVSAAVGGTVTINCQASQNIVNNLAWYQQRPGQPPKLLIYDTSTLASGVPSRFKGSGSGTEFTLTISDLECADAATYYCQTYYYYNKIINGFGGGTEVVVK
B2: anti-ZIKV MAb 289-3 (antibody, V domains shown)
VH: QEELEESGGDLVKPGASLTLTCKASGFSFSSGAYICWVRQAPGKGPEWIACIYTGDGRTYYANWAKRRFTISSSSSTTVALEMPSLTDADTATYFCARAIAVGAGYGVGNYFTLWGPGTLVTVSS
VL: DIVMTQTPSSVSAAVGGTVTINCHASENIYGYLSWYQQKPGQPPKLLIYKASTLASGVPSRFKGSGAGTQFTLTITALECADAATYYCQSYYTSSSNADGSENAFGGGTEVVVE
B3: anti-ZIKV MAb 270-12 (antibody, V domains shown)
VH: QAQLEESGGDLVKPEGSLTLTCTASGFSFTDRHYMCWVRQAPGKGLEWIACVYPGSSGSTYYASWARGRFTISKTSSTTVTLRMTSLTAADTATYFCARSSYPDSSGYSYGMDLWGPGTLVTVSS
VL: DIVMTQTPASVEAAVGGTVTIKCQASQDINSNLAWYQQKPGQRPKFLMYLTSKLASGVPSRFRGSGSGTQFTLTISDLECADAATYYCQTYYDISNYGYAFGGGTEVVVK
notes: source: 293-6E cells, cotransfected, purified (MabSelect SuRe protein A)
B4: anti-ZIKV MAb 11-3 (antibody, V domains shown)
VH: QEQLVESGGGLVQPEGSLTITCTGSGFSFSSRFYMCWVRQAPGKGLEWIACIYGGSSGSTYYASWAKGRFTISKTSSTTVTLQISSLTAADTATYFCARGGSTAAAGFNLWGPGTLLTVSS
VL: DVVMTQTPASVSATVGGTVTIKCQASEDIYNLLAWYQQKPGQPPKLLIYYASTLASGVPSRFKGSGSGTEFTLTISDLECADAATYYCQCNDYGGTYVPNAFGGGTEVVVK
notes: recombinant rabbit IgG
B5: framework region (FWR) amino acid reverted anti-ZIKV MAb 306-2 (antibody, V domains shown)
VH: B1 VH with G49A, R72K, R84S
VL: B1 VL with S10P, A34S, R39K, T53N, G66R
notes: rabbit IgG; 3 FWRH and 5 FWRL residues reverted to the germ line; also called allele reverted MAb 306-2; MAb 306-2 with amino acid reverted to allele
B6: framework region (FWR) amino acid reverted anti-ZIKV MAb 102-1 (antibody, V domains shown)
VH: QSLEESGGDLVKPGASLTLTCTASGFSFNSNYWMCWVRQAPGKGLEWIACVFGGIHVTYYASWAKGRFTISKTSSTTVTLQMTSLTAADTATYFCIISTGGSHRFNLWGPGTLVTVSS
VL: DVVMTQTPSPVSAAVGGTVTINCQASESIYTYLSWYQQKPGQPPKLLIYRASTLESGVPSRFKGSGSGTQFTLTISDLECADAATYYCQATDVGGSGRGAFGGGTEVVVE
notes: rabbit IgG; 9 FWRH and 9 FWRL residues reverted to the germ line

The target of one assay is T1, ZIKV virus-like particles (Suriname Z1106033) (Zika virus, Suriname Z1106033, UniProt A0A0U4DG08, strain).
T1 construct: also called ZIKV-VLP; VLP; source: bought: The Native Antigen Company
Put plainly: BLI; Octet HTX; MAb 0.1 to 0.3 μg/mL amine-coupled to AR2G biosensor; ZIKV-VLP 0.1 to 1.0 μg/mL or ZIKV E protein 0.2 to 2 μg/mL in 1x kinetic buffer; association 900 s, dissociation 1,200 s; Langmuir 1:1 model; average of two runs. The note with it: both partners purified. A general note: Biolayer interferometry detects binding as a change in optical thickness at a sensor tip.
As usually defined, the Kd is the free concentration of one partner at which half of the binding sites on the other are occupied at equilibrium, for simple one-to-one binding. The term koff denotes a measure of how fast the partners let go of each other. In general, kon refers to the second-order rate constant of association. B1 gave a dissociation constant Kd of 400 pM, a koff of 6.34e-05 s⁻¹ and a kon of 160000 M⁻¹ s⁻¹.

B2 had a Kd of 300 pM, a koff of 4.58e-05 s⁻¹ and a kon of 155000 M⁻¹ s⁻¹.

As to B3, the Kd turned out to be 310 pM, the koff came out at 4.27e-05 s⁻¹ and the on-rate (kon) was 140000 M⁻¹ s⁻¹.

Molecule B4 registered a Kd of 570 pM, a koff of 7.13e-05 s⁻¹ and a kon of 125000 M⁻¹ s⁻¹.

Another assay addresses T2, ZIKV E protein (Suriname Z1106033) (Zika virus, Suriname Z1106033, UniProt A0A0U4DG08, strain).
T2 construct: also called soluble ZIKV E protein
The assay is described as above. As to conditions: both partners purified.
Turning to B1, the Kd amounted to 170 pM, the koff was 2.04e-05 s⁻¹ and the kon was 117000 M⁻¹ s⁻¹.

On to B2, for which the affinity, expressed as Kd, was 290 pM; the koff amounted to 3.68e-05 s⁻¹; the kon stood at 129000 M⁻¹ s⁻¹.

In the case of B3, the Kd stood at 1040 pM, the koff is 9.8e-05 s⁻¹ and the kon worked out at 94500 M⁻¹ s⁻¹.

Molecule B4 registered a Kd of 1530 pM, a koff of 0.000137 s⁻¹ and a kon of 89800 M⁻¹ s⁻¹.

For the next assay, the target named is T2, ZIKV E protein (Suriname Z1106033). Put plainly: BLI; Octet HTX; 2 μg/mL MAb captured on protein G biosensor in 0.1% BSA-PBST; 3 μg/mL ZIKV E protein associated 600 s, dissociated 900 s. The note with it: both partners purified.
As to B5, the binding result was “binds”.

Turning to B6, the binding result is “binds”.

In a further assay the target is T1, ZIKV virus-like particles (Suriname …). Put plainly: Luminex bead assay; VLP conjugated to MagPlex beads (EDC/NHS); 10,000 beads/mL with 10 μg/mL to 0.0002 ng/mL MAb, 90 min, room temperature, 1% BSA in D-PBS; detected with phycoerythrin-labeled anti-rabbit IgG. As to conditions: both partners purified.
Regarding B5, the binding result is given as “binds”.

Consider B6, for which the binding result is recorded as “binds”.

In the next assay the target is T3, wild-type ZIKV prM/E (ZIKV SPH2015) (Zika virus, SPH2015, UniProt A0A0U3FSM8, strain).
T3 construct: also called WT prM/E; wild-type prM/E; source: HEK-293T, transfected, cells fixed and permeabilised
Put plainly: flow cytometry on cells. The note with it: one partner purified. In general terms: Flow cytometry measures light scatter and fluorescence of single cells or particles in a stream.
On to B1, for which the binding result is “binds”.

B2: the binding result was “binds”.

Regarding B3, the binding result is recorded as “binds”.

The next assay has as its target T2, ZIKV E protein (Suriname Z1106033). Briefly: cell-based or functional assay.
Conditions: not given
In turn, B1 registered an other of 10500 ng/mL.

The molecule B2 came in with an other of 7.8 ng/mL.

For the molecule B3, the “MNT titer, IC50 (microneutralization of ZIKV PRVABC59 on Vero cells)” value was determined as 0.0372 µg/mL.
